{"source": "patent US20240270865A1", "about": "(INNATE PHARMA, published 2024)", "binders": {"B1": {"name": "2H4+2L1 anti-CD73 antibody (antibody, human IgG1, kappa, V domains shown)", "VH": "QIQLVQSGAEVKKPGASVKVSCKASGYTFASYNMYWVRQAPGQRLEWIGYIDPYNGGSSYNQKFKGRVTLTRDKSASTAYMELSSLRSEDTAVYYCARGYNNYKAWFAYWGQGTLVTVSS", "VL": "DIQMTQSPSSLSASVGDRVTITCKASQSVTNDVAWYQQKPGKAPKLLIYYASNRYTGVPSRFSGSGYGTDFTFTISSLQPEDIATYYCQQDYSSLTFGQGTKLEIKR"}}, "key": {"[1]": {"target": "T1, human CD73 expressed on cells (human, UniProt P21589 27-549)", "T1 sequence": "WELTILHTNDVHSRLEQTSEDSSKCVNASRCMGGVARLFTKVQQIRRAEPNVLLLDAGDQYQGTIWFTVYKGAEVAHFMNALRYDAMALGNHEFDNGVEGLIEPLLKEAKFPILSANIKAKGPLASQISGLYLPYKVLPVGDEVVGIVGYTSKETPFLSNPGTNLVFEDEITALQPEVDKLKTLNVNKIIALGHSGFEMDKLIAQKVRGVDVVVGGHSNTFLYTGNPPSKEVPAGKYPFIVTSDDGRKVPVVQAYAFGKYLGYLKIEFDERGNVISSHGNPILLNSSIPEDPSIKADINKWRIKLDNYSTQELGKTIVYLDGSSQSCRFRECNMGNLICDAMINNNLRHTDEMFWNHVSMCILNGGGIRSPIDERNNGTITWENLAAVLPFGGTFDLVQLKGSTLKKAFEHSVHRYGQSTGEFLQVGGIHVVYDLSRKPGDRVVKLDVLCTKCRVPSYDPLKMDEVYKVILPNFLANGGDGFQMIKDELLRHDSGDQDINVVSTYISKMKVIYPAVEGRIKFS", "assay": "cell-based or functional assay"}, "[2]": {"target": "T2, CD73 in human serum (human, UniProt P21589 27-574)", "T2 sequence": "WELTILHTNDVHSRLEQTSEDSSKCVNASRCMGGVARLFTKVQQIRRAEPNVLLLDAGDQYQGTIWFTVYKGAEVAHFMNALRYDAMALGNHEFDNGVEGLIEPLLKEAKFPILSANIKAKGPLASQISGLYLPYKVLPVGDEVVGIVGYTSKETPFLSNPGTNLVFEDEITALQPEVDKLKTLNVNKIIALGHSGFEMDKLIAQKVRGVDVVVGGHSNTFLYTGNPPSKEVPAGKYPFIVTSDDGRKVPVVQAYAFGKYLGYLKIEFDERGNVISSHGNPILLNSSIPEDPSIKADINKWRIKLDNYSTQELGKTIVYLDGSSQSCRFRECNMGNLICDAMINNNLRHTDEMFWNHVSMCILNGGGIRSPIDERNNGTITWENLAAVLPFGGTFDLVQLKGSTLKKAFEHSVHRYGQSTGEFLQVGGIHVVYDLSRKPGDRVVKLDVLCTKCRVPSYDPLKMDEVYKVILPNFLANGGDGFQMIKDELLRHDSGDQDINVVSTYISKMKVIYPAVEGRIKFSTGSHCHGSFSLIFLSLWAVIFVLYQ", "assay": "cell-based or functional assay"}}}
{"binder": "B1", "values": [{"measurement": "enzymatic inhibition, in vitro assay on A375 tumor cells (IC50)", "setting": "[1]", "result": 0.034, "unit": "µg/mL"}, {"measurement": "enzymatic inhibition, in vitro assay on MDA-MB231 tumor cells (IC50)", "setting": "[1]", "result": 0.127, "unit": "µg/mL"}, {"measurement": "reversion of AMP inhibited T cell proliferation on CD4+ T cells (IC50)", "setting": "[1]", "result": 0.0081, "unit": "µg/mL"}, {"measurement": "reversion of AMP inhibited T cell proliferation on CD8+ T cells (IC50)", "setting": "[1]", "result": 0.0077, "unit": "µg/mL"}, {"measurement": "enzymatic inhibition, in vitro assay on human serum (IC50)", "setting": "[2]", "result": 0.0123, "unit": "µg/mL"}]}
